Molecular target: soluble γc protein (sγc), recombinant murine (mouse)
Assay: immunoprecipitation and immunoblot, SDS-PAGE under reducing and non-reducing conditions; culture supernatant of sγc expressing 293 T cells immunoprecipitated and immunoblotted with anti-γc ectodomain antibodies; resolved with (+ DTT) or without reduction

stoichiometry N: 2
Substance: soluble γc protein (sγc), recombinant murine (natural protein)

From article PMC5105068
